Where “and” joins values, the source holds several entries; their conditions need not be identical. Identical values can stand only once. Square brackets hold non-standard residues; d marks the D form. Ends that are not written are not given here. pY = N[C@@H](Cc1ccc(OP(=O)(O)O)cc1)C(=O)O
Legend:
SOCS2-Elo B/C + F3 [1] = target: T1, SOCS2-Elo B/C + F3 (human, UniProt O14508 32-198; Q15370 1-118; Q15369 17-112); experiment: ITC
SOCS2-Elo B/C + F3 [2] = target: T1, SOCS2-Elo B/C + F3; experiment: ITC; remark: listed apart in the source
F3 peptide = experiment: NMR titration

T1 sequence (Q15370 whole entry, chain 2 of 2): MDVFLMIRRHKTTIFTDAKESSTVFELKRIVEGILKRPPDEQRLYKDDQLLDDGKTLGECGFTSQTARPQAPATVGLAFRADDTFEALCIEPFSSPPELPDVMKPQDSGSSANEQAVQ
T1 sequence (Q15369 17-112, chain 3 of 2): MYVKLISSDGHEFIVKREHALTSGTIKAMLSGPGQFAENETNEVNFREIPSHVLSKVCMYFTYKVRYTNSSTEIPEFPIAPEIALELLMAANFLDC

Binder	stoichiometry N (SOCS2-Elo B/C + F3 [1])	Kd (SOCS2-Elo B/C + F3 [2]) [µM]	binding result (F3 peptide)
STASTVQ[pY]STVVHSG [gp130 pY757 peptide]	0.738 and 0.632	–	–
Cullin5 N-terminal domain (Cul5^1-384) (domain or fragment) MATSNLLKNKGSLQFEDKWDFMRPIVLKLLRQESVTKQQWFDLFSDVHAVCLWDDKGPAKIHQALKEDILEFIKQAQARVLSHQDDTALLKAYIVEWRKFFTQCDILPKPFCQLEITLMGKQGSNKKSNVEDSIVRKLMLDTWNESIFSNIKNRLQDSAMKLVHAERLGEAFDSQLVIGVRESYVNLCSNPEDKLQIYRDNFEKAYLDSTERFYRTQAPSYLQQNGVQNYMKYADAKLKEEEKRALRYLETRRECNSVEALMECCVNALVTSFKETILAECQGMIKRNETEKLHLMFSLMDKVPNGIEPMLKDLEEHIISAGLADMVAAAETITTDSEKYVEQLLTLFNRFSKLVKEAFQDDPRFLTARDKAYKAVVNDATIFK	0.81	0.041	–
SOCS2-SH2^32–159 (domain or fragment, human, UniProt O14508 32-159, looked up) QAARLAKALRELGQTGWYWGSMTVNEAKEKLKEAPEGTFLIRDSSHSDYLLTISVKTSAGPTNLRIEYQDGKFRLDSIICVKSKLKQFDSVVHLIDYYVQMCKDKRTGPEAPRNGTVHLYLTKPLYTS	–	–	binds
